These results are taken from patent publication US20190085082A1 (CANCER RESEARCH TECHNOLOGY, published 2019).

The target of experiment [1] is T1, murine CLEC14A-Fc fusion protein (mouse, UniProt Q8VCP9 22-386).
T1 construct: extracellular domain; also called CM; mCLEC14A-Fc; not shown: human Fc tag from the pcDNA3-Fc plasmid
T1 sequence (looked up): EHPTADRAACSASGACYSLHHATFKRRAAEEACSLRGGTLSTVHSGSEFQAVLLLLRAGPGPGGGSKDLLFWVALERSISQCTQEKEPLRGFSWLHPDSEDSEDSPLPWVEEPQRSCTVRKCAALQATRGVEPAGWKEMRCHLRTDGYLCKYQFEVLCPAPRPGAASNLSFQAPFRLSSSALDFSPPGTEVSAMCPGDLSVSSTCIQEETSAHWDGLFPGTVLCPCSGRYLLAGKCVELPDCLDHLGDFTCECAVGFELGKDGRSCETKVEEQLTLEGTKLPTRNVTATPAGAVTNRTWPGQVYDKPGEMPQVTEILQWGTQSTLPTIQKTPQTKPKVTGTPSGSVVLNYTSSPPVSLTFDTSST
Description: ELISA of hybridoma supernatants on absorbed antigen. As to the method:
More than 500 HAT-resistant hybridoma clones from each mouse were obtained. All of the clone supernatants were tested twice with 4 days interval by ELISA against three absorbed antigens (CM, CH and Fc). […] The positives were cloned 2-4 times by the limiting dilution method, propagated in culture flasks and injected into mice for ascites. One clone (CRT-3) was the result of immunisation with CLEC14a human-AP (CHAP), and the other clone (CRT-2) was the result of immunisation with CLEC14a mouse-AP (CM-AP).
(An ELISA detects its analyte on a solid surface through an enzyme-linked reagent.)

Experiment [2] has as its target T2, full length human CLEC14A on cells (engineered CHO, SEND or 293 cells; HUVECs) (human, UniProt Q86T13 22-490).
T2 construct: HUVECs express it naturally; also called huCLEC
T2 sequence: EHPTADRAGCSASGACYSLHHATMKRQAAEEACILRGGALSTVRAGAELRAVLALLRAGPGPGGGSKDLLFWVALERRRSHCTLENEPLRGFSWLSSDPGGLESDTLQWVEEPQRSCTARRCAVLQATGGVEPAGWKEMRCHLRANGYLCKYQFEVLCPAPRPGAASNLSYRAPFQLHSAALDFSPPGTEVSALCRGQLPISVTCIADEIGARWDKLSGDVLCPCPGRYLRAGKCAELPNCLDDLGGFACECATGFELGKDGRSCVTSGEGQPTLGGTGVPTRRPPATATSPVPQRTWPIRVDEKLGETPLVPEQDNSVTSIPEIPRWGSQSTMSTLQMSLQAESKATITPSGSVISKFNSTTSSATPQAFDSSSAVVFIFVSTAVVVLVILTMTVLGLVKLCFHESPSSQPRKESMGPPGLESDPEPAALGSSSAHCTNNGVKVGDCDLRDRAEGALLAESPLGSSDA
Put plainly: fluorescence microscopy of HUVEC treated with CRT-3, antibody localisation at 0 and 90 minutes.

Experiment [3] concerns the target T3, thrombomodulin (CD141), wild type, with C-terminal GFP tag, expressed on HEK293T cells (UniProt P07204 19-575).
T3 construct: whole, on cells; also called WT CD141; VVT CD141; not shown: C-terminal GFP tag
Description: flow cytometry, HEK293T cells transfected with thrombomodulin (C-terminal GFP tag, GFP-positive cells gated). On the technique in general: A flow cytometer gives signals particle by particle.

T3 sequence (P07204 19-575): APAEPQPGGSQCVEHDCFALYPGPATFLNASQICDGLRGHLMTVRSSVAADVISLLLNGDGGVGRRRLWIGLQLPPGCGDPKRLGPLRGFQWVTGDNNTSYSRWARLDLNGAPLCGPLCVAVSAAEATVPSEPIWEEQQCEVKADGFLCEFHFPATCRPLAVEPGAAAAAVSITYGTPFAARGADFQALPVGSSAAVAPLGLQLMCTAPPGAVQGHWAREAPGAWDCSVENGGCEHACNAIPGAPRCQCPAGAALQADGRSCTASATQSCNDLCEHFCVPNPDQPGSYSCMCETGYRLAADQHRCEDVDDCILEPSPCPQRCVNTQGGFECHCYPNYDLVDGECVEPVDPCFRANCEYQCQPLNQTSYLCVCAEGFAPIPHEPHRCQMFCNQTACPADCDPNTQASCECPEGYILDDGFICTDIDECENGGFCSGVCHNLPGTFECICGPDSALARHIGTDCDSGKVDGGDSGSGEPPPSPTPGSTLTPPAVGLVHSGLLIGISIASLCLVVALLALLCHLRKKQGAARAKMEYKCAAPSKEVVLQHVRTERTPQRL

B1: CRT-3 anti-CLEC14A monoclonal antibody (antibody, IgG1, V domains shown)
VH: EVQLQQSGTVLARPGASVKMSCKASGYTFTSYWMHWVKQRPGQGLEWIGAIYPGNSDTSYNQKFKGKAKLTAVTSTSTAYMELSSLTNEDSAVFYCTHYYGSDYAMDYWGQGTSVTV
VL: QIVLTQSPAIMSASLGERVTMTCTASSSVSSSYLHWYQQKPGSSPKLWIYSTSNLASGVPARFSGSGSGTSYSLTISSMEAEDAATYYCHQYHRSPRTFGGGTKLEIKR
On to B1, for which the binding result in experiment [1] is reported as “binds”; in experiment [2], “binds”; in experiment [3], “no binding”.
